Results from US8106004B2, “Methods of inhibiting tumor cell aggressiveness using the microenvironment of human embryonic stem cells” (Children's Memorial Hospital, priority 2006, dated 2012).

B1: rLeftyB: recombinant Lefty-B (protein, UniProt O00292 77-366, looked up)
Left-right determination …: RFSQSFREVAGRFLASEASTHLLVFGMEQRLPPNSELVQAVLRLFQEPVPKAALHRHGRLSPRSAQARVTVEWLRVRDDGSNRTSLIDSRLVSVHESGWKAFDVTEAVNFWQQLSRPRQPLLLQVSVQREHLGPLASGAHKLVRFASQGAPAGLGEPQLELHTLDLRDYGAQGDCDPEAPMTEGTRCCRQEMYIDLQGMKWAKNWVLEPPGFLAYECVGTCQQPPEALAFNWPFLGPRQCIASETASLPMIVSIKEGGRTRPQVVSLPNMRVQKCSCASDGALVPRRLQP
B2: rNodal: recombinant Nodal (R&D Systems), used at 100 ng/mL (protein, UniProt Q96S42 238-347, looked up)
Nodal homolog: HHLPDRSQLCRKVKFQVDFNLIGWGSWIIYPKQYNAYRCEGECPNPVGEEFHPTNHAYIQSLLKRYQPHRVPSTCCAPVKTKPLSMLYVDNGRVLLDHHKDMIVEECGCL

Key:
Format in all cases: cell-based, human
[1] = tested on: Nodal; assay: Nodal expression in C8161 cells (Western blot, real time RT-PCR); details: C8161 exposed 48 hrs to 0-1000 ng/mL recombinant Lefty
Method: A determination of the effects of H9 CMTX on Nodal expression in metastatic melanoma (C8161) and breast carcinoma (MDA-MB-231) cells was undertaken. […] Exposure to H9 CMTX similarly abrogates Nodal mRNA expression in the melanoma and breast carcinoma cells (FIG. 9C).
Protein lysates were prepared and quantified as previously described in Hess et al., 2001, Cancer Res. 61:3250-3255. Equal amounts of protein were separated by SDS-polyacrylamide gel electrophoresis under reducing conditions, and the resolved proteins were transferred onto Immobilon-P membranes (Millipore Corp., Bedford, Mass.). Membranes were blocked in 1% TBS, 0.1% Tween 20 (TBS-T) and 5% dry milk powder or 3% gelatin (for Nodal Westerns). Blots were incubated with anti-Nodal or anti-Lefty antibodies (Polyclonal rabbit anti-Nodal (H-110) 1:500 Santa Cruz Biotechnology, Santa Cruz, Calif.; Polyclonal goat anti-Lefty 1:500 R&D Systems, Minneapolis, Minn.), washed in TBS-T, and incubated with the appropriate horseradish peroxidase-labeled secondary antibody. Secondary antibodies were detected by enhanced chemiluminescence (Super Signal; Pierce, Rockford, Ill.) and exposure to autoradiography film (Molecular Technologies, St Louis, Mo.). Nodal protein was detected as two major bands at ˜48 and ˜35 kDa representing precursor and pro-Nodal respectively. Nodal often appeared as multiple bands, likely due to degradation of protein modifications. All experiments were done at least three times.
The derivation and phenotypic characteristics of the human melanoma cell lines have been previously described. Seftor, et. al., 2002, Clin. Experim. Metastas. 19:233-246; Seftor, et. al., 2005 Cancer Res. 65:10164-10169. The melanoma cell lines are maintained in RPMI 1640 medium (Invitrogen) supplemented with 10% fetal bovine serum (FBS, Gemini Bioproducts) and 0.1% gentamycin sulfate with the exception of C81-61 cells which are maintained in Ham's FIO medium supplemented with 15% FBS, 1X Mito+ (BD Bioscience) and gentamycin sulfate. […] The cultures are determined to be free of mycoplasma contamination using a PCR-based assay (Roche). […]

[2] = tested on: C8161 cells; assay: Soft agar / anchorage independent growth assay, C8161 cells; details: for rescue of inhibition of in vitro clonogenicity: recombinant Nodal 100 ng/mL
Method: (§1) An in vitro colony forming assay was used to analyze colony-forming ability of poorly aggressive C81-61 cells, aggressive C8161 cells, C8161 cells treated with MO^Nodal and C8161 cells treated with MO^Nodal and rescued with recombinant Nodal (100 ng/mL). The assay was conducted using 50,000 cells suspended in 0.35% agarose in RPMI containing 10% serum, which were plated into 6-well dishes on 0.5% agar in the same medium. Colonies grew, and pictures were taken at day 7. After 2 weeks, colonies were stained with Crystal Violet and counted.
The derivation and phenotypic characteristics of the human melanoma cell lines have been previously described. Seftor, et. al., 2002, Clin. Experim. Metastas. 19:233-246; Seftor, et. al., 2005 Cancer Res. 65:10164-10169. The melanoma cell lines are maintained in RPMI 1640 medium (Invitrogen) supplemented with 10% fetal bovine serum (FBS, Gemini Bioproducts) and 0.1% gentamycin sulfate with the exception of C81-61 cells which are maintained in Ham's FIO medium supplemented with 15% FBS, 1X Mito+ (BD Bioscience) and gentamycin sulfate. Normal human melanocytes are purchased (Cascade Biologics) or isolated from neonatal foreskins. Seftor, et. al., 2005. A single cell suspension is prepared, added to plastic flasks for the adherence of melanocytes and the cells propagated in Medium 254 with Human Melanocyte Growth Supplement (Cascade Biologics) including, 100 units/ml penicillin, 100 μg/ml streptomycin, and 250 ng/mL amphotericin B. The human embryonic stem cell lines are cultured as previously described. Thomson, et. al., 1998, Science 282:1145-1147. Briefly, cells are grown in 6-well plates precoated with 0.1% porcine gelatin and containing 1.9×10^5 irradiated mouse embryonic fibroblasts (strain CF-1; ATCC) per well. The cells are maintained in medium containing DMEM/F12 (1:1), 20% knock-out serum replacement, non-essential minimal amino acids, L-glutamine (Invitrogen), […], and 4 ng/ml FGF-2 (R&D Systems), and are split with collagenase (1 mg/ml) before the colonies begin to overlap. The cultures are determined to be free of mycoplasma contamination using a PCR-based assay (Roche). The normal human neonatal epidermal melanocytes (HEMn-LP; Cascade Biologics, Portland Oreg.), myoepithelial cells (Hs 578 Bst; American Type Culture Collection (ATCC), Manassas, Va.) and primary mammary epithelial cells (HMEpC; Cell Applications Inc., San Diego Calif.) were maintained as per distributor instructions. Live umbilical cord blood stem cells (SC00125; New Jersey Stem Cell Resource at Coriell Institute for Medical Research) amniotic fluid derived stem cells (GM00473, GM00957A) and adult bone marrow derived mesenchymal stem cells (Stem Cell Technologies, Vancouver BC, Canada) were maintained under the recommended conditions. The HTR-8/SVneo is a well characterized immortalized human extravillous cytotrophoblast cell line, and was maintained as previously described Graham et al., 1993, Exp. Cell Res. 206:204-211. […] The expression vector for wild type Nodal was kindly provided by Dr. Daniel Constam (Swiss Institute for Experimental Cancer Research (ISREC), Epalinges, Switzerland) and was transfected into C81-61 cells as previously described. Le Good et al., 2005, Curr. Biol. 15:31-36. […]

[3] = tested on: C81-61 cells; assay: Soft agar colony forming assay, C81-61 cells; details: C81-61 cell line, rNodal
Method: as §1

[4] = tested on: MDA-MB-231 cells; assay: Soft agar / anchorage independent growth assay, MDA-MB-231 cells; details: recombinant Nodal 100 ng/mL
Method: The melanoma cell lines are maintained in RPMI 1640 medium (Invitrogen) supplemented with 10% fetal bovine serum (FBS, Gemini Bioproducts) and 0.1% gentamycin sulfate with the exception of C81-61 cells which are maintained in Ham's FIO medium supplemented with 15% FBS, 1X Mito+ (BD Bioscience) and gentamycin sulfate. Normal human melanocytes are purchased (Cascade Biologics) or isolated from neonatal foreskins. […] A single cell suspension is prepared, added to plastic flasks for the adherence of melanocytes and the cells propagated in Medium 254 with Human Melanocyte Growth Supplement (Cascade Biologics) including, 100 units/ml penicillin, 100 μg/ml streptomycin, and 250 ng/mL amphotericin B. The human embryonic stem cell lines are cultured as previously described. […] Briefly, cells are grown in 6-well plates precoated with 0.1% porcine gelatin and containing 1.9×10^5 irradiated mouse embryonic fibroblasts (strain CF-1; ATCC) per well. […] The cultures are determined to be free of mycoplasma contamination using a PCR-based assay (Roche). […] The conditioned matrix is then analyzed by 2-D LDS-PAGE and Western blot directly, or reseeded with melanoma cells and incubated for an additional 3 days. […]

Row | Molecule | Nodal protein expression (Western blot) [1] | rescue of inhibition of in vitro clonogenicity ([2]; C8161 exposed to H9 CMTX) | rescue of inhibition of in vitro clonogenicity ([2]; C8161 exposed to H9 Lefty-containing matrix) | rescue of reduced colony formation ([2]; C8161 treated with MONodal, rNodal 100 ng/mL) | colony formation [3] | rescue of inhibition of in vitro clonogenicity ([4]; MDA-MB-231 exposed to H9 CMTX) | rescue of inhibition of in vitro clonogenicity ([4]; MDA-MB-231 exposed to H9 Lefty-containing matrix)
1 | B1 | can inhibit Nodal protein in C8161 cells, but at a higher doses than its hESC counterpart | – | – | – | – | – | –
2 | B2 | – | partially rescued | completely rescued | rescued | did not induce colony formation | partially rescued | completely rescued
